Assays:
[1] = target: rAmpC CNE-1 from C. neteri SSMD04 (Cedecea neteri, UniProt A0A089PY88); conditions: CNE-1 compared with CDA-1 (ref 13)
[2] = tested on: rAmpC CNE-2 from C. neteri 33855; experiment: Assay for ESAC and class B metallo-β-lactamase activity (nitrocefin hydrolysis with clavulanic acid or EDTA); format: biochemical; conditions: 2 mM test substance, 500 nM rAmpC, 500 µM nitrocefin, 30 °C, 8 min
Method: (§1) The reactions carried out in the absence and presence of EDTA with purified rAmpC enzymes using the reporter substrate, nitrocefin, were performed. […] The class C β-lactamases are functionally cephalosporinases that are generally resistant to clavulanic acid. However, some AmpCs which show resistance to oxyimino-cephalosporins and are commonly sensitive to clavulanic acid were termed extended-spectrum AmpC β-lactamases (ESAC), similar to the extended-spectrum β-lactamases (ESBLs) of the A class according to the Bush-Jacoby classification. […] To test this aspect of ESAC activity, reactions were performed in the presence of clavulanic acid.
(§2) For each panel, all reactions contained 500 nM rAMpC protein and 500 µM nitrocefin.
(§3) The reactions testing ESBL activity (related to the observation that most ESBL enzymes are inhibited by clavulanic acid) were performed in the absence or presence of 2 mM clavulanic acid. Class B β-Lactamase activity was tested by reactions performed in the absence or presence of 2 mM ethylenediaminetetraacetic acid (EDTA).

[3] = tested on: rAmpC CMH-4 from E. cloacae 13047; experiment: as above; format: biochemical; conditions: 2 mM test substance, 500 nM rAmpC, 500 µM nitrocefin, 30 °C, 8 min
Method: as §1, §2, §3

[4] = tested on: rAmpC CNE-1 from C. neteri SSMD04; experiment: as above; format: biochemical; conditions: 2 mM test substance, 500 nM rAmpC, 500 µM nitrocefin, 30 °C, 8 min
Method: as §1, §2, §3

[5] = tested on: CDA-1 (AmpC from C. davisae); conditions: cited from earlier work
[6] = target: rAmpC CMH-4 from E. cloacae ATCC 13047 (Enterobacter cloacae subsp. cloacae, UniProt A0A0H3CN55); experiment: Michaelis-Menten kinetic analysis of substrate hydrolysis by purified rAmpC; conditions: CMH-4 compared with E. cloacae P99 AmpC (ref 29)
[7] = tested on: CC1(C)S[C@@H]2[C@H](NC(=O)[C@H](N)c3ccccc3)C(=O)N2[C@H]1C(=O)O; experiment: purified protein, by the assay type; conditions: 37.0 °C
[8] = tested on: CO/N=C(\C(=O)N[C@@H]1C(=O)N2C(C(=O)O)=C(COC(N)=O)CS[C@H]12)c1ccco1; experiment: purified protein, by the assay type; conditions: 37.0 °C
[9] = tested on: CO[C@@]1(NC(=O)Cc2cccs2)C(=O)N2C(C(=O)O)=C(COC(N)=O)CS[C@@H]21; experiment: purified protein, by the assay type; conditions: 37.0 °C
[10] = tested on: CC1=C(C(=O)O)N2C(=O)[C@@H](NC(=O)[C@H](N)c3ccccc3)[C@H]2SC1; experiment: purified protein, by the assay type; conditions: 37.0 °C
[11] = tested on: Cc1nnc(SCC2=C(C(=O)O)N3C(=O)[C@@H](NC(=O)Cn4cnnn4)[C@H]3SC2)s1; experiment: purified protein, by the assay type; conditions: 37.0 °C
[12] = tested on: C[C@@H](O)[C@H]1C(=O)N2C(C(=O)O)=C(SCCN=CN)C[C@H]12; experiment: purified protein, by the assay type; conditions: 37.0 °C
[13] = tested on: O=C(Cc1cccs1)N[C@@H]1C(=O)N2C(C(=O)O)=C(/C=C/c3ccc([N+](=O)[O-])cc3[N+](=O)[O-])CS[C@H]12; experiment: purified protein, by the assay type; conditions: pH 7.0; 30.0 °C

CO[C@@]1(NC(=O)Cc2cccs2)C(=O)N2C(C(=O)O)=C(COC(N)=O)CS[C@@H]21 [Cefoxitin, cefoxitin]
Km, fold higher than for CDA-1 from C. davisae [1]: 100 fold

O=C(O)CN(CCN(CC(=O)O)CC(=O)O)CC(=O)O [EDTA, ethylenediaminetetraacetic acid]
Inhibition of nitrocefin hydrolysis [2]: hydrolyzed the substrate, nitrocefin, in the presence of EDTA | Inhibition of nitrocefin hydrolysis [3]: hydrolyzed the substrate, nitrocefin, in the presence of EDTA | Inhibition of nitrocefin hydrolysis [4]: hydrolyzed the substrate, nitrocefin, in the presence of EDTA

C[C@@H](O)[C@H]1C(=O)N2C(C(=O)O)=C(SCCN=CN)C[C@H]12 [Imipenem, imipenem]
Km [5]: ~2 µM

O=C(O)[C@H]1/C(=C/CO)O[C@@H]2CC(=O)N21 [clavulanic acid]
Inhibition of nitrocefin hydrolysis [2]: not inhibited | Inhibition of nitrocefin hydrolysis [3]: completely inhibited | Inhibition of nitrocefin hydrolysis [4]: not inhibited

O=C(Cc1cccs1)N[C@@H]1C(=O)N2C(C(=O)O)=C(/C=C/c3ccc([N+](=O)[O-])cc3[N+](=O)[O-])CS[C@H]12 [nitrocefin]
kcat, fold less than for AmpC from E. cloacae P99 [6]: ~ 100 fold

(Cedecea neteri)
Km [7]: 72 µM | Km [8]: 5 µM | Km [9]: 48 µM | Km [10]: 2 µM | Km [11]: 67 µM | Km [12]: 5 µM | Km [13]: 46 ± 5 µM | kcat [13]: 1.93 ± 0.16 s⁻¹ | kcat/Km [13]: 41900 M⁻¹ s⁻¹

(Enterobacter cloacae subsp. cloacae ATCC 13047)
Km [7]: 7 µM | Km [8]: 0.35 µM | Km [9]: 12 µM | Km [10]: 6.8 µM | Km [12]: 0.85 µM | Km [13]: 11 ± 2 µM

From PMC9952435, “Characterization of Two Novel AmpC Beta-Lactamases from the Emerging Opportunistic Pathogen, Cedecea neteri” (Antibiotics, 2023)
